From article PMC3840377 come the findings set out here.

The target in data set [1] is T1, alpha-thrombin (UniProt P00734;P00734 328-363;364-622). Kind of data set: flow cytometry, thrombin capture on CEM cells, T-15-biotin/SA-488 read-out.
Data set [2] has as its target T1, alpha-thrombin. Kind of data set: flow cytometry, sandwich on T27-AR-captured thrombin.
The target in another data set is streptavidin (UniProt P22629 25-183). The data set is described as follows: flow cytometry, SA-488 capture on CEM cells.
streptavidin, sequence (P22629 25-183): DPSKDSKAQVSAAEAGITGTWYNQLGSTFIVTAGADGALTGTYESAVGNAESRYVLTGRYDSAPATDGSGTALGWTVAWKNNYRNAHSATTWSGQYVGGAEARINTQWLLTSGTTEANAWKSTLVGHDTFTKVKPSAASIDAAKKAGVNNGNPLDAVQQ

For the molecule TTTTTTTGTCCGTGGTAGGGCAGGTTGGGGTGAC (ssDNA, 5' diacyllipid) [T27-AR], in the data set with alpha-thrombin [1], the binding result is reported as “binds”.

Regarding GGTTGGTGTGGTTGG (ssDNA) [T-15], the binding result in the data set with alpha-thrombin [2] was “binds”.

Turning to TTTTTTTATTGACCGCTGTGTGACGCAACACTCAAT (ssDNA, 5' diacyllipid) [SA-AR], the binding result with streptavidin is given as “binds”.
